Data on four molecules can be found in US20160324958A1 (ALPHA O PEPTIDES, published 2016).

Assay [1] concerns the target Toll-like receptor 5 (TLR5) on TLR5/SEAPorter HEK 293 cells (IMGENEX, Cat. No. IML-105) (UniProt O60602). The experiment in a line: cell-based or functional assay.
In assay [2] the target is Toll-like receptor 5 (TLR5) on TLR5/SEAPorter HEK 293 cells (IMGENEX, Cat. No. IML-105) (UniProt O60602 21-858). Kind of assay: cell-based or functional assay.
Chain of Toll-like receptor 5 (TLR5) on TLR5/SEAPorter HEK 293 cells (IMGENEX, Cat. No. IML-105) (UniProt O60602 21-858) (O60602 21-858 limits assumed): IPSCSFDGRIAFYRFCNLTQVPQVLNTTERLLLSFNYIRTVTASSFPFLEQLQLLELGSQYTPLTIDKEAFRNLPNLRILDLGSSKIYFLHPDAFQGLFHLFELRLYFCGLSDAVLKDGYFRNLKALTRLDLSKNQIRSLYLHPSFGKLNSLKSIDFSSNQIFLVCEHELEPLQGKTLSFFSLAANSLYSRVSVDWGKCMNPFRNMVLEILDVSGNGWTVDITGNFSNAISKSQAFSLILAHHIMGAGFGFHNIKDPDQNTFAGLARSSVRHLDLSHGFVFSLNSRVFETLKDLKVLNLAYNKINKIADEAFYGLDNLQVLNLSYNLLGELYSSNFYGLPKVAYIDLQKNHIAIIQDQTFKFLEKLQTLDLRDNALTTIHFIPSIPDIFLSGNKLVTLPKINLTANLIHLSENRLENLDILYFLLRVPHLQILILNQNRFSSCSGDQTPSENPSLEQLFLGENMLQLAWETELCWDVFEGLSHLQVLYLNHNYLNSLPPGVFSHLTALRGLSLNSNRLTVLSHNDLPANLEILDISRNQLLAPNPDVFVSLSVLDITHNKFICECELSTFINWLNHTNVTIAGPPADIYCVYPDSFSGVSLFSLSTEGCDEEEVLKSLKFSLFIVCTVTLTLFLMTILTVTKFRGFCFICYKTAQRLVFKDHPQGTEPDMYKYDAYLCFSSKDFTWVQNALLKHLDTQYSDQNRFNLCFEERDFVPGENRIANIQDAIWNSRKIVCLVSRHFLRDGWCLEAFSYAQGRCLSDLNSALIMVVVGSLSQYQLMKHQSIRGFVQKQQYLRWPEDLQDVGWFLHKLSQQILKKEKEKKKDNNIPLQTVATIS

Chain of Toll-like receptor 5 (TLR5) on TLR5/SEAPorter HEK 293 cells (IMGENEX, Cat. No. IML-105) (UniProt O60602) (O60602 21-858 limits assumed): as above

With “flagellin from Salmonella typhimurium (IMGENEX flagellin, Cat. No. IMG-2205) (from UniProt P06179 2-495) (ligand)”, the EC50 of TLR5 agonist activity (SEAP reporter, TLR5/SEAPorter HEK 293 cells) in assay [1] is 0.29 ng/mL.

B1: T81c-WRW-8RRVRA-D0-D1 : T81c-WRW-8RRVRA-T1BT* co-assembled nanoparticle (12:48) (other)
chain 1: MGHHHHHHASWRWDGGLVPRGSWQTWNARWDQWSNDWNAWRSDWQAWRDDWARWRALWMGGRLLLRLEELERRLEELERRLEELERFVAAWTLRVRALERRLEELERRIEEIARGMAQVINTNSLSLLTQNNLNKSQSALGTAIERLSSGLRINSAKDDAAGQAIANRFTANIKGLTQASRNANDGISIAQTTEGALNEINNNLQRVRELAVQSANSTNSQSDLDSIQAEITQRLNEIDRVSGQTQFNGVKVLAQDNTLTIQVGANDGETIDIDLKQINSQTLGLDSLNVHGAPVDPASPWTENPLQKIDAALAQVDALRSDLGAVQNRFNSAITNLGNTVNNLSEARSRIEDSDYATEVSNMSRAQILQQAGTSVLAQANQVPQNVLSLLR
chain 2: MGHHHHHHASEYLNKIQNSLSTEWSPSSVTGSWQTWNARWDQWSNDWNAWRSDWQAWRDDWARWRALWMGGRLLLRLEELERRLEELERRLEELERFVAAWTLRVRALERRLEELERRIEEIARGSGDPNANPNVDPNANPNVNANPNANPNANP
As for B1, in assay [2], the “EC50 of TLR5 agonist activity (SEAP reporter, TLR5/SEAPorter HEK 293 cells)” value worked out at 0.0901 ng/mL and the “TLR5 activation relative to native flagellin” value was roughly 3 fold.

B2: LONG-D2-D1-ori self-assembling protein nanoparticle (other)
chain: MGHHHHHHASWRWDGGLVPRGSWQTWNARWDQWSNDWNAWRSDWQAWRDDWARWRALWMGGRLLLRLEELERRLEELERRLEELERFVAAWTLRVRALERRLEELERRIEEIARGSGSSARLSDLEANNAVKGESKITVNGAEYTANATGDKITLAGKTMFIDKTASGVSTLINEDAAAAKKSTANPLASIDSALSKVDAVRSSLGAIQNRFDSAIGSRNANDGISIAQTTEGALNEINNNLQRVRELSVQATNGTNSDSDLKSIQDEIQQRLEEIDRVSNQTQFNGVKVLSQDNQMKIQVGANDGETITIDLQKIDVKSLGLDGFNVNGPKEATVGDLKSSFKNVTGYDTYAAGADKYRVDINSGAV
On to B2, for which the “EC50 of TLR5 agonist activity (SEAP reporter, TLR5/SEAPorter HEK 293 cells)” value in assay [2] was found to be 12.6 ng/mL.

B3: PD52-2i88-PANDORA-D2-D1-ori : PD52-2i88-PANDORA-Noro co-assembled nanoparticle (5:55) (other)
chain 1: MGHHHHHHASGSWEKWNAKWDEWKNDWNDWRRDWQAWVDDWAYWTLTWKYGELYSKLAELERRNEELERRLEELARFVAALSMRLAELERRNEELARGSGSSARLSDLEANNAVRGESKITVNGAEYTANATGDRITLAGRTMFIDRTASGVSTLINEDAAAARRSTANPLASIDSALSRVDAVRSSLGAIQNRFDSAIGSKNANDGISIAQTTEGALNEINNNLQRVRELSVQATNGTNSDSDLRSIQDEIQQRLEEIDRVSNQTQFNGVKVLSQDNQMKIQVGAKDGETITIDLQKIDVKSLGLDGFNVNGPREATVGDLRSSFRNVTGYDTYAAGADRYRVDINSGAV
chain 2: MGHHHHHHASGSWEKWNAKWDEWKNDWNDWRRDWQAWVDDWAYWTLTWKYGELYSKLAELERRNEELERRLEELARFVAALSMRLAELERRNEELARGSGSTVEQKTRPFTLPNLPLSSLSNSRAPLPISSMGISPDNVQSVQFQNGRCTLDGRLVGTTPVSLSHVAKIRGTSNGTVINLTELDGTPFHPFEGPAPIGFPDLGGCDWHINMTQFGHSSQTQYDVDTTPDTFVPHLGSIQANGIGSGNYVGVLSWISPPSHPSGSQVDLWKIPNYGSSITEATHLAPSVYPPGFGEVLVFFMSKMPGPGAYNLPCLLPQEYISHLASEQAPTVGEAALLHYVDPDTGRNLGEFKAYPDGFLTCVPNGASSGPQQLPINGVFVFVSWVSRFYQLKPVGTAS
Turning to B3, the “EC50 of TLR5 agonist activity (SEAP reporter, TLR5/SEAPorter HEK 293 cells)” value in assay [2] turned out to be 17.7 ng/mL.
